Measured values taken from US20140087995A1 (published 2014).
Numbered stars: 1 amine (or outer) side, 2 acyl side, 3 side chain; on linkers, the order of the positions; unused ones are H or OH. Bridge positions count the residues as written; N and C are the ends. Square brackets hold non-standard residues; d marks the D form. Side chains are listed from the residue outwards. Ends that are not written are not given here. * marks the point of attachment. C20 diacid = O=C(O)CCCCCCCCCCCCCCCCCCC(=O)*; γGlu = O=C(O)[C@H](CCC(=O)[*:2])N[*:1]; AEEA = NCCOCCOCC(=O)O

T1: human calcitonin receptor (human, UniProt P30988 25-474)
T1 construct: whole, on cells; Assay used cell membranes, not intact cells; also called hCTR; hCT
T1 sequence (looked up): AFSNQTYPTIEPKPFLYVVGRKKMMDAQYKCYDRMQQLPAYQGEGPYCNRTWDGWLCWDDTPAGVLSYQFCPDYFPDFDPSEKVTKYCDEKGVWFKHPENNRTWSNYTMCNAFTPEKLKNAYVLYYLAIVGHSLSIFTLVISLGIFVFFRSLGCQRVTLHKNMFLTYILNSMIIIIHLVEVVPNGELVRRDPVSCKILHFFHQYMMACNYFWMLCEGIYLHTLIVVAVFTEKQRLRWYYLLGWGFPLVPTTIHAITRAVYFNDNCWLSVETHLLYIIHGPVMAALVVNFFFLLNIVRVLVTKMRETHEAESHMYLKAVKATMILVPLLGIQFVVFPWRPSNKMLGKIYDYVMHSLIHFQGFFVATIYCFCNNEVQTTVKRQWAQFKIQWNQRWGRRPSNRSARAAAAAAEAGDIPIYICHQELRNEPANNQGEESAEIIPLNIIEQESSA

T2: human amylin receptor (amylin 3(a) receptor: human calcitonin receptor with RAMP-3) (human, UniProt P30988 25-474; O60896 24-148)
T2 construct: whole, on cells; Assay used cell membranes of the Amylin 3(a)/CRE-luc BHK cells, not intact cells; also called hAmylin-R; hAmylinR
T2 sequence (looked up) 1: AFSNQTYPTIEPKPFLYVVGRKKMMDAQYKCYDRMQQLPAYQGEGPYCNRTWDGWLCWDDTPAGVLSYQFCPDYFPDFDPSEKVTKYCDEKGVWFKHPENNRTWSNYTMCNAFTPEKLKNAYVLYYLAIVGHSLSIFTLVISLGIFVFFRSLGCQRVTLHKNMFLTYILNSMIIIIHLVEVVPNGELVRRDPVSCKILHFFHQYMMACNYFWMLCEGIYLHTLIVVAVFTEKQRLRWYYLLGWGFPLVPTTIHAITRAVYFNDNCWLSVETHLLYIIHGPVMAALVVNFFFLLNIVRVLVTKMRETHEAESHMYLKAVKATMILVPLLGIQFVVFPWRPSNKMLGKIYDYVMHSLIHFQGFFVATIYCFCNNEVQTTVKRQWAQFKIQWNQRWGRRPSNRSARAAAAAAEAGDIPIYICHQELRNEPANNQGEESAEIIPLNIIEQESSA
T2 sequence (looked up) 2: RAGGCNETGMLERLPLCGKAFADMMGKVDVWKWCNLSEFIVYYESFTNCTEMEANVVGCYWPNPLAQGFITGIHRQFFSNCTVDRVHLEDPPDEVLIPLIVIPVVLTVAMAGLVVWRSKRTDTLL


How the values were obtained:
[1] = target: T1, human calcitonin receptor; assay: ratio IC50 hCTR / IC50 hAmylin-R (reference: human amylin receptor), SPA competition assays
Description: The resulting pellet was resuspended, homogenized and centrifuged (20.000 rpm, 15 min) in a buffer containing 20 mM Na-HEPES and 0.1 mM EDTA (pH 7.4, buffer 2). The resulting pellet was resuspended in buffer 2 and protein concentration was measured (BCA protein Assay, Pierce). The homogenate was kept cold during the whole procedure. The membranes were kept at −80° C. until use. The assay was performed in a 384 well Optiplate (PerkinElmer) in a total volume of 40 ul. Membranes were mixed with SPA beads. Final concentration of membranes 35 ng/μL final and SPA beads was 0.05 mg/well. Test-compounds were dissolved in DMSO and further diluted in assay buffer (50 mM Hepes, pH 7.4, 1 mM CaCl2, 5 mM MgCl₂, 0.1% OA and 0.02% Tween20). […] The final mixture was incubated with shaking at 400 rpm for 120 min at 25° C. prior to centrifugation (1500 rpm, 10 min). Samples were analyzed on TopCounter™ (Packard). The IC₅₀ was calculated using (one site binding competition analysis) GraphPad Prism5 as a measure of receptor affinity.
Membranes were prepared in the following way; the cells were rinsed with PBS and incubated with Versene for approximately 5 min before harvesting. The cells were flushed with PBS and the cell-suspension was centrifuged for 5 min at 1000 rpm. Cells were homogenized (Ultrathurrax) in a buffer containing 20 mM Na-HEPES and 10 mM EDTA (pH 7.4) and centrifuged at 20.000 rpm for 15 min. The resulting pellet was resuspended, homogenized and centrifuged (20.000 rpm, 15 min) in a buffer containing 20 mM Na-HEPES and 0.1 mM EDTA (pH 7.4, buffer 2). The resulting pellet was resuspended in buffer 2 and protein concentration was measured (BCA protein Assay, Pierce). The homogenate was kept cold during the whole procedure. The membranes were kept at −80° C. until use. Assay was performed in a 384 well Optiplate (PerkinElmer) in a total volume of 40 ul. Membranes were mixed with SPA beads.

[2] = target: T2, human amylin receptor (amylin 3(a) …); assay: SPA competition with 125I-rat amylin on membranes of BHK cells with human calcitonin receptor and RAMP-3 (Assay V)
Description: The binding assay was performed using scintillation proximity assay (SPA) beads (RPNQ0001) from PerkinElmer and cell membranes from the Amylin 3(a)/CRE-luc cells (as described in Assay (II)) were used. Membranes were prepared in the following way; the cells were rinsed with PBS and incubated with Versene for approximately 5 min before harvesting. The cells were flushed with PBS and the cell-suspension was centrifuged for 5 min at 1000 rpm. Cells were homogenized (ultrathurrax) in a buffer containing 20 mM Na-HEPES and 10 mM EDTA (pH 7.4) and centrifuged at 20.000 rpm for 15 min. The resulting pellet was resuspended, homogenized and centrifuged (20.000 rpm, 15 min) in a buffer containing 20 mM Na-HEPES and 0.1 mM EDTA (pH 7.4, buffer 2). The resulting pellet was resuspended in buffer 2 and protein concentration was measured (BCA protein Assay, Pierce). The homogenate was kept cold during the whole procedure. The membranes were kept at −80° C. until use. The assay was performed in a 384 well Optiplate (PerkinElmer) in a total volume of 40 ul. Membranes were mixed with SPA beads. Final concentration of membranes 35 ng/μL final and SPA beads was 0.05 mg/well. Test-compounds were dissolved in DMSO and further diluted in assay buffer (50 mM Hepes, pH 7.4, 1 mM CaCl2, 5 mM MgCl₂, 0.1% OA and 0.02% Tween20). […] The final mixture was incubated with shaking at 400 rpm for 120 min at 25° C. prior to centrifugation (1500 rpm, 10 min). Samples were analyzed on TopCounter™ (Packard). The IC₅₀ was calculated using (one site binding competition analysis) GraphPad Prism5 as a measure of receptor affinity.

[3] = target: T1, human calcitonin receptor; assay: SPA competition with 125I-calcitonin on membranes of BHK cells with human calcitonin receptor (Assay VII)
Description: Membranes were prepared in the following way; the cells were rinsed with PBS and incubated with Versene for approximately 5 min before harvesting. The cells were flushed with PBS and the cell-suspension was centrifuged for 5 min at 1000 rpm. Cells were homogenized (Ultrathurrax) in a buffer containing 20 mM Na-HEPES and 10 mM EDTA (pH 7.4) and centrifuged at 20.000 rpm for 15 min. The resulting pellet was resuspended, homogenized and centrifuged (20.000 rpm, 15 min) in a buffer containing 20 mM Na-HEPES and 0.1 mM EDTA (pH 7.4, buffer 2). The resulting pellet was resuspended in buffer 2 and protein concentration was measured (BCA protein Assay, Pierce). The homogenate was kept cold during the whole procedure. The membranes were kept at −80° C. until use. Assay was performed in a 384 well Optiplate (PerkinElmer) in a total volume of 40 ul. Membranes were mixed with SPA beads. Final concentration of membranes 35 ng/μL final and Final concentration of SPA beads was 0.05 mg/well. Test-compounds were dissolved in DMSO and further diluted in assay buffer (50 mM Hepes, pH 7.4, 1 mM CaCl2, 5 mM MgCl₂, 0.1% OA and 0.02% Tween20). […] The final mixture was incubated for 120 min with shaking at 400 rpm at 25° C. prior to centrifugation (1500 rpm, 10 min). Samples were analyzed on TopCounter™ (Packard). The […] was calculated using (one site binding competition analysis) GraphPad Prism5 as a measure of receptor affinity.

Row | Binder | Ratio hCT/hAmylin binding [1] | IC50 [2] [nM] | IC50 [3] [nM]
1 | K([AEEA-AEEA-γGlu-C20 diacid])CNTATCATQRLANFLRHSSPNFGAIPSSTNVGPNTY-NH2 (disulfide 2-7; N-terminus assumed; SMILES CC[C@H](C)[C@H](NC(=O)[C@H](C)NC(=O)CNC(=O)[C@H](Cc1ccccc1)NC(=O)[C@H](CC(N)=O)NC(=O)[C@@H]1CCCN1C(=O)[C@H](CO)NC(=O)[C@H](CO)NC(=O)[C@H](Cc1c[nH]cn1)NC(=O)[C@H](CCCNC(=N)N)NC(=O)[C@H](CC(C)C)NC(=O)[C@H](Cc1ccccc1)NC(=O)[C@H](CC(N)=O)NC(=O)[C@H](C)NC(=O)[C@H](CC(C)C)NC(=O)[C@H](CCCNC(=N)N)NC(=O)[C@H](CCC(N)=O)NC(=O)[C@@H](NC(=O)[C@H](C)NC(=O)[C@@H]1CSSC[C@H](NC(=O)[C@@H](N)CCCCNC(=O)COCCOCCNC(=O)COCCOCCNC(=O)CC[C@H](NC(=O)CCCCCCCCCCCCCCCCCCC(=O)O)C(=O)O)C(=O)N[C@@H](CC(N)=O)C(=O)N[C@@H]([C@@H](C)O)C(=O)N[C@@H](C)C(=O)N[C@@H]([C@@H](C)O)C(=O)N1)[C@@H](C)O)C(=O)N1CCC[C@H]1C(=O)N[C@@H](CO)C(=O)N[C@@H](CO)C(=O)N[C@H](C(=O)N[C@@H](CC(N)=O)C(=O)N[C@H](C(=O)NCC(=O)N1CCC[C@H]1C(=O)N[C@@H](CC(N)=O)C(=O)N[C@H](C(=O)N[C@@H](Cc1ccc(O)cc1)C(N)=O)[C@@H](C)O)C(C)C)[C@@H](C)O, also called compound 98) | 74.1 | 0.091 | 6.74
2 | K([γGlu-γGlu-C20 diacid])CNTATCATQRLA[dD]FLRHSSPNFGAIPSSTNVGSRTY-NH2 (disulfide 2-7; N-terminus assumed; SMILES CC[C@H](C)[C@H](NC(=O)[C@H](C)NC(=O)CNC(=O)[C@H](Cc1ccccc1)NC(=O)[C@H](CC(N)=O)NC(=O)[C@@H]1CCCN1C(=O)[C@H](CO)NC(=O)[C@H](CO)NC(=O)[C@H](Cc1c[nH]cn1)NC(=O)[C@H](CCCNC(=N)N)NC(=O)[C@H](CC(C)C)NC(=O)[C@H](Cc1ccccc1)NC(=O)[C@@H](CC(=O)O)NC(=O)[C@H](C)NC(=O)[C@H](CC(C)C)NC(=O)[C@H](CCCNC(=N)N)NC(=O)[C@H](CCC(N)=O)NC(=O)[C@@H](NC(=O)[C@H](C)NC(=O)[C@@H]1CSSC[C@H](NC(=O)[C@@H](N)CCCCNC(=O)CC[C@H](NC(=O)CC[C@H](NC(=O)CCCCCCCCCCCCCCCCCCC(=O)O)C(=O)O)C(=O)O)C(=O)N[C@@H](CC(N)=O)C(=O)N[C@@H]([C@@H](C)O)C(=O)N[C@@H](C)C(=O)N[C@@H]([C@@H](C)O)C(=O)N1)[C@@H](C)O)C(=O)N1CCC[C@H]1C(=O)N[C@@H](CO)C(=O)N[C@@H](CO)C(=O)N[C@H](C(=O)N[C@@H](CC(N)=O)C(=O)N[C@H](C(=O)NCC(=O)N[C@@H](CO)C(=O)N[C@@H](CCCNC(=N)N)C(=O)N[C@H](C(=O)N[C@@H](Cc1ccc(O)cc1)C(N)=O)[C@@H](C)O)C(C)C)[C@@H](C)O) | – | 0.365 | 112
3 | K([AEEA-C20 diacid])CNTATCATQRLANFLRHSSPNFGAIPSSTNVGHNTY-NH2 (disulfide 2-7; N-terminus assumed; SMILES CC[C@H](C)[C@H](NC(=O)[C@H](C)NC(=O)CNC(=O)[C@H](Cc1ccccc1)NC(=O)[C@H](CC(N)=O)NC(=O)[C@@H]1CCCN1C(=O)[C@H](CO)NC(=O)[C@H](CO)NC(=O)[C@H](Cc1c[nH]cn1)NC(=O)[C@H](CCCNC(=N)N)NC(=O)[C@H](CC(C)C)NC(=O)[C@H](Cc1ccccc1)NC(=O)[C@H](CC(N)=O)NC(=O)[C@H](C)NC(=O)[C@H](CC(C)C)NC(=O)[C@H](CCCNC(=N)N)NC(=O)[C@H](CCC(N)=O)NC(=O)[C@@H](NC(=O)[C@H](C)NC(=O)[C@@H]1CSSC[C@H](NC(=O)[C@@H](N)CCCCNC(=O)COCCOCCNC(=O)CCCCCCCCCCCCCCCCCCC(=O)O)C(=O)N[C@@H](CC(N)=O)C(=O)N[C@@H]([C@@H](C)O)C(=O)N[C@@H](C)C(=O)N[C@@H]([C@@H](C)O)C(=O)N1)[C@@H](C)O)C(=O)N1CCC[C@H]1C(=O)N[C@@H](CO)C(=O)N[C@@H](CO)C(=O)N[C@H](C(=O)N[C@@H](CC(N)=O)C(=O)N[C@H](C(=O)NCC(=O)N[C@@H](Cc1c[nH]cn1)C(=O)N[C@@H](CC(N)=O)C(=O)N[C@H](C(=O)N[C@@H](Cc1ccc(O)cc1)C(N)=O)[C@@H](C)O)C(C)C)[C@@H](C)O, also called compound 91) [N^ε1-[2-[2-[2-(19-carboxynonadecanoylamino)ethoxy]ethoxy]acetyl]-[Arg17,Pro21,Pro27,His34]-h-amylin] | 101 | 0.119 | 12
